The target of the experiment is ES-62 (Acanthocheilonema viteae). Kind of experiment: SPR; Biacore 3000; 300 RU of ES-62 amine-coupled to a CM5 chip; CRP 10 ug/ml to 20 ng/ml flowed at 10 ul/min; HBS with 1 mM CaCl2 and 0.005% P20, pH 7.4; Langmuir 1:1 analysis, ka and kd calculated separately; avidity.

In general, koff refers to the first-order rate constant of dissociation.

B1: C-reactive protein (native, human) (natural protein)
chain: QTDMSRKAFVFPKESDTSYVSLKAPLTKPLKAFTVCLHFYTELSSTRGYSIFSYATKRQDNEILIFWSKDIGYSFTVGGSEILFEVPEVTVAPVHICTSWESASGIVEFWVDGKPRVRKSLKKGYTVGAEASIILGQEQDSFGGNFEGSQSLVGDIGNVNMWDFVLSPDEINTIYLGGPFSPNVLNWRALKYEVQGEVFTKPQLWP
For B1, the Kd was 100 pM and the koff was 0.0006 to 0.0014 s⁻¹.

(Values after paper PMC4882459.)
